Reference: patent publication US20240376151A1, “STAPLED PEPTIDES AND METHODS THEREOF” (FOG PHARMACEUTICALS, INC., priority 2022, published 2024)

How the values were obtained:
beta-catenin = target: T1, beta-catenin (Homo sapiens, UniProt P35222); experiment: Phage Library Screening with NGS, beta-catenin; format: binding; conditions: for Target Concentration 10 (phage screen NGS readout): beta-catenin target concentration 10; for Target Concentration 10 (phage screen NGS readout) / Target Concentration 30 (phage screen NGS readout) / Target Concentration 100 (phage screen NGS readout) / Target Concentration 300 (phage screen NGS readout): no competitor; for Target Concentration 30 (phage screen NGS readout): beta-catenin target concentration 30; for Target Concentration 100 (phage screen NGS readout): beta-catenin target concentration 100; for Target Concentration 300 (phage screen NGS readout): beta-catenin target concentration 300; for Target Concentration 1000 (phage screen NGS readout): beta-catenin target concentration 1000
T1 construct: made in house; host or cells: E. coli BL21 (DE3) pLysS
T1 sequence (P35222 134-665): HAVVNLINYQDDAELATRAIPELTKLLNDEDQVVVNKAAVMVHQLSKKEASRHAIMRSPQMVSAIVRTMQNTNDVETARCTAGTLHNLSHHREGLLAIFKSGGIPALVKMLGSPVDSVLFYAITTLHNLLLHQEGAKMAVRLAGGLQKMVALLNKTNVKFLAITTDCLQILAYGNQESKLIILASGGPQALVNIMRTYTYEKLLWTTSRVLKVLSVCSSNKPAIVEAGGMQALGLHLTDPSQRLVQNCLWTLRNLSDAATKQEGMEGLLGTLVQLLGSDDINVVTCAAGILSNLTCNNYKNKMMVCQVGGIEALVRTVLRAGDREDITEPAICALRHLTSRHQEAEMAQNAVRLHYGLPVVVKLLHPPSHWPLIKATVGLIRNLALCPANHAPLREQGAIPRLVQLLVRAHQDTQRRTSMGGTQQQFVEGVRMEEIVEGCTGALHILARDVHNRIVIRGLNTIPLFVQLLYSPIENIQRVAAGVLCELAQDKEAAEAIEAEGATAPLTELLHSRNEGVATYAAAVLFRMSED

RNF31 PUB domain = target: T2, RNF31 PUB domain (Homo sapiens, UniProt Q96EP0); experiment: Phage Library Screening with NGS, RNF31 PUB domain; format: binding; conditions: for Phage library screen NGS readout, Target Concentration 10 / Phage library screen NGS readout, Target Concentration 30 / Phage library screen NGS readout, Target Concentration 100 / Phage library screen NGS readout, Target Concentration 300 / Phage library screen NGS readout, Target Concentration 1000: RNF31 PUB domain clusters C41-C45; for Phage library screen NGS readout, BLANK: clusters C41-C45
T2 construct: MBP-TEV (N, cleaved yes); made in house; host or cells: E. coli BL21 (DE3) pLysS
T2 sequence (Q96EP0 1-179): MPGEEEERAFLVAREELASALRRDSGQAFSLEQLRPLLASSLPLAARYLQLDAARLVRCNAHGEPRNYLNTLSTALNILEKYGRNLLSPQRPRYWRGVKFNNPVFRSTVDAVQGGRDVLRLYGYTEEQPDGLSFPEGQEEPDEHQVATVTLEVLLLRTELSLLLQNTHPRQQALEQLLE

[1] = target concentration 1000, first column
[2] = target concentration 1000, second column

Compound	Target Concentration BLANK (phage screen NGS readout) (beta-catenin; first column)	Target Concentration BLANK (phage screen NGS readout) (beta-catenin; fourth column)	Target Concentration BLANK (phage screen NGS readout) (beta-catenin; second column)	Target Concentration BLANK (phage screen NGS readout) (beta-catenin; third column)	Target Concentration 10 (phage screen NGS readout) (beta-catenin)	Target Concentration 30 (phage screen NGS readout) (beta-catenin)	Target Concentration 100 (phage screen NGS readout) (beta-catenin)	Target Concentration 300 (phage screen NGS readout) (beta-catenin)	Target Concentration 1000 (phage screen NGS readout) (beta-catenin; first 1000 column)	Target Concentration 1000 (phage screen NGS readout) (beta-catenin; second 1000 column)	Phage library screen NGS readout, Target Concentration 10 (RNF31 PUB domain)	Phage library screen NGS readout, Target Concentration 30 (RNF31 PUB domain)	Phage library screen NGS readout, Target Concentration 100 (RNF31 PUB domain)	Phage library screen NGS readout, Target Concentration 300 (RNF31 PUB domain)	Phage library screen NGS readout, Target Concentration 1000 (RNF31 PUB domain; [1])	Phage library screen NGS readout, Target Concentration 1000 (RNF31 PUB domain; [2])	Phage library screen NGS readout, BLANK (RNF31 PUB domain; column 1 of 5)	Phage library screen NGS readout, BLANK (RNF31 PUB domain; column 2 of 5)	Phage library screen NGS readout, BLANK (RNF31 PUB domain; column 3 of 5)	Phage library screen NGS readout, BLANK (RNF31 PUB domain; column 4 of 5)	also measured
DPAALSCYQAAFHCQYY	0	0	0	0	0	0	1	5	14	17											
DPAAQRCTWAAIHCELI	0	0	0	2	0	0	7	39	25	93											
DPADDFCMWAAEHCELL	0	0	0	1	10	12	81	226	273	227											
DPADEDCILAAHVCRHF	0	0	0	0	0	6	11	29	25	21											
DPAYWDCLYAAWSCDIL											0	1	0	4	9	7	1	1	1	0	Phage library screen NGS readout, BLANK (RNF31 PUB domain; column 5 of 5): 0
DPAYWDCMYAAFYCDDI											0	0	0	3	3	8	0	0	0	0	Phage library screen NGS readout, BLANK (RNF31 PUB domain; column 5 of 5): 2
DPAYYTCDWAAIYCDYH											0	0	0	1	6	6	0	1	0	0	Phage library screen NGS readout, BLANK (RNF31 PUB domain; column 5 of 5): 0

Further lines, with some results ahead:

Target Concentration BLANK (phage screen NGS readout) (beta-catenin; first column)	Target Concentration BLANK (phage screen NGS readout) (beta-catenin; fourth column)	Target Concentration BLANK (phage screen NGS readout) (beta-catenin; second column)	Target Concentration BLANK (phage screen NGS readout) (beta-catenin; third column)	Target Concentration 10 (phage screen NGS readout) (beta-catenin)	Target Concentration 30 (phage screen NGS readout) (beta-catenin)	Target Concentration 100 (phage screen NGS readout) (beta-catenin)	Target Concentration 300 (phage screen NGS readout) (beta-catenin)	Target Concentration 1000 (phage screen NGS readout) (beta-catenin; first 1000 column)	Target Concentration 1000 (phage screen NGS readout) (beta-catenin; second 1000 column)	Phage library screen NGS readout, Target Concentration 10 (RNF31 PUB domain)	Phage library screen NGS readout, Target Concentration 30 (RNF31 PUB domain)	Phage library screen NGS readout, Target Concentration 100 (RNF31 PUB domain)	Phage library screen NGS readout, Target Concentration 300 (RNF31 PUB domain)	Phage library screen NGS readout, Target Concentration 1000 (RNF31 PUB domain; [1])	Phage library screen NGS readout, Target Concentration 1000 (RNF31 PUB domain; [2])	Phage library screen NGS readout, BLANK (RNF31 PUB domain; column 1 of 5)	Phage library screen NGS readout, BLANK (RNF31 PUB domain; column 2 of 5)	Phage library screen NGS readout, BLANK (RNF31 PUB domain; column 3 of 5)	Phage library screen NGS readout, BLANK (RNF31 PUB domain; column 4 of 5)	Compound	also measured
0	0	2	1	13	27	122	158	246	246											CC(=O)N[C@@H](CC(=O)O)C(=O)N1CCC[C@H]1C(=O)N[C@@H](C)C(=O)N[C@@H](CC(C)C)C(=O)N[C@@H](Cc1c[nH]c2ccccc12)C(=O)N[C@@H](CCC(N)=O)C(=O)N[C@@H](CS)C(=O)N[C@@H](CCC(=O)O)C(=O)N[C@@H](Cc1c[nH]cn1)C(=O)N[C@@H](C)C(=O)N[C@@H](C)C(=O)N[C@@H](CC(C)C)C(=O)N[C@@H](CC(C)C)C(=O)N[C@@H](CS)C(=O)N[C@@H](CC(=O)O)C(=O)N[C@H](C(=O)N[C@@H](Cc1c[nH]cn1)C(N)=O)C(C)C	
1	1	2	3	19	41	163	495	605	424											CC[C@H](C)[C@H](NC(=O)[C@H](C)NC(=O)[C@H](C)NC(=O)[C@H](Cc1c[nH]c2ccccc12)NC(=O)[C@H](CCC(=O)O)NC(=O)[C@H](CS)NC(=O)[C@H](CC(C)C)NC(=O)[C@H](CCC(=O)O)NC(=O)[C@H](CO)NC(=O)[C@H](C)NC(=O)[C@@H]1CCCN1C(=O)[C@H](CC(=O)O)NC(C)=O)C(=O)N[C@@H](Cc1c[nH]cn1)C(=O)N[C@@H](CS)C(=O)N[C@@H](CC(=O)O)C(=O)N[C@@H](CC(C)C)C(=O)N[C@H](C(N)=O)C(C)C	
7	0	1	0	8	46	144	397	407	343											DPAADDCVLAAHVCAYF	
										0	1	0	0	5	6	0	1	1	4	DPAYTLCSWAAMYCDSM	Phage library screen NGS readout, BLANK (RNF31 PUB domain; column 5 of 5): 2
										0	0	0	4	8	5	2	0	0	0	DPAYWDCLYAAADCAFY	Phage library screen NGS readout, BLANK (RNF31 PUB domain; column 5 of 5): 0
										0	0	0	2	8	4	0	3	0	0	DPAYWHCLYAAASCDDI	Phage library screen NGS readout, BLANK (RNF31 PUB domain; column 5 of 5): 2
										0	0	1	4	13	6	1	2	2	1	DPAYWQCIYAAWDCDQM	Phage library screen NGS readout, BLANK (RNF31 PUB domain; column 5 of 5): 0
